Test results reported in patent US20100233689A1.

Assays:
[1] = molecular target: endogenous MISRII of the mouse ovarian cancer cell line MOVCAR7 (mouse) (UniProt Q8K592); assay: cell-based or functional assay
[2] = molecular target: rat MISRII receptor (MIS type II receptor), transiently expressed in COS7 cells (rat) (UniProt Q62893); assay: cell-based or functional assay
Chain of rat MISRII receptor (MIS type II receptor), transiently expressed in COS7 cells (rat) (Q62893 18-557): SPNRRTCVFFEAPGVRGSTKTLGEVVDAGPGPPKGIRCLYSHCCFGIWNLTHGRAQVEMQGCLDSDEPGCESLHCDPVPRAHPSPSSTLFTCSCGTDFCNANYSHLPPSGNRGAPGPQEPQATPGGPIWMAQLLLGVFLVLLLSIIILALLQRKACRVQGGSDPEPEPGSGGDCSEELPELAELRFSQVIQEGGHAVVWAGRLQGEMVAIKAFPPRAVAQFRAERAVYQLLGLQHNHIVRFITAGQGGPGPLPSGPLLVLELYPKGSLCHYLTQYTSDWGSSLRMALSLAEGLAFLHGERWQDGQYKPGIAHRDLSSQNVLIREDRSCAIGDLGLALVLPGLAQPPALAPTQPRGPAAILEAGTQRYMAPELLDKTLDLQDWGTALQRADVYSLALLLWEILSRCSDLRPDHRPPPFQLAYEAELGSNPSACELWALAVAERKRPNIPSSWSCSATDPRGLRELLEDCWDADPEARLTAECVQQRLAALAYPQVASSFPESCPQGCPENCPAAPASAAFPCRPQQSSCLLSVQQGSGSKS

Chain of endogenous MISRII of the mouse ovarian cancer cell line MOVCAR7 (mouse) (Q8K592 16-568): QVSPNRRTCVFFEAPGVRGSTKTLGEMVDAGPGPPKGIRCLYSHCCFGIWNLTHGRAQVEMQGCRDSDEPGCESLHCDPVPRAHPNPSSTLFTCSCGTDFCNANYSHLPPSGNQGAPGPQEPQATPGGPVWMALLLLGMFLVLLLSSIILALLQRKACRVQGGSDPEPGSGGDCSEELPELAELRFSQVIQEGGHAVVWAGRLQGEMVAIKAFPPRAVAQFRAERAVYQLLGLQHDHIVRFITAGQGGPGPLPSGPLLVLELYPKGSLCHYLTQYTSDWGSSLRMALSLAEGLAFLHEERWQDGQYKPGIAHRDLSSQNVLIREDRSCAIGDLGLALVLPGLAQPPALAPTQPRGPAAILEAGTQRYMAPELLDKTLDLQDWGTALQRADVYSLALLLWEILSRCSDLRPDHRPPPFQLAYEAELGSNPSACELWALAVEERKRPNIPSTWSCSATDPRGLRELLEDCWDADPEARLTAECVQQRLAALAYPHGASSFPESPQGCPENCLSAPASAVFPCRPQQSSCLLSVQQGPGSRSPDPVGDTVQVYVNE

- BRE-luciferase activity in MOVCAR7 cells, fold increase over untreated cells, 24 h [1]: 2 fold
- BRE-luciferase reporter expression in MISRII-transfected COS7 cells, fold induction, 24 h [2]: > 10 fold
Substance: Recombinant human Mullerian Inhibiting Substance (MIS) (from UniProt P03971 25-560) (ligand)
